The text below walks through data of article PMC2976503 (The Journal of neuroscience : the official journal of the …, 2010).

The data set deals with the molecule itself. The data set can be described thus: SDS-resistant high molecular mass complex on SDS-PAGE.

B1: GABAA receptor γ2S(Q351X)^FLAG subunit (domain or fragment, human, UniProt P18507-1 40-389, looked up)
chain: QKSDDDYEDYASNKTWVLTPKVPEGDVTVILNNLLEGYDNKLRPDIGVKPTLIHTDMYVNSIGPVNAINMEYTIDIFFAQTWYDRRLKFNSTIKVLRLNSNMVGKIWIPDTFFRNSKKADAHWITTPNRMLRIWNDGRVLYTLRLTIDAECQLQLHNFPMDEHSCPLEFSSYGYPREEIVYQWKRSSVEVGDTRSWRLYQFSFVGLRNTTEVVKTTSGDYVVMSVYFDLSRRMGYFTIQTYIPCTLIVVLSWVSFWINKDAVPARTSLGITTVLTMTTLSTIARKSLPKVSYVTAMDLFVSVCFIFVFSALVEYGTLHYFVSNRKPSKDKDKKKKNPAPTIDIRPRSATI
What is called stoichiometry N is the number of molecules, sites or subunits per partner or assembly. As to B1, the “stoichiometry N” value came to 2.
